Measurements reported in publication PMC5642108.

B1: 18 bp dsDNA (EMSA) (dsDNA)
DNA 1: CAGGCTATAAAAGGGACG
DNA 2: CGTCCCTTTTATAGCCTG
B2: smFRET DNA (18 bp with 19 nt 3' overhang) (dsDNA)
DNA 1: CAGGCTATAAAAGGGACG
DNA 2: CGTCCCTTTTATAGCCTGATACAAGCAGCAGTCACCA

Assays:
FL HMGB1 [1] = biological target: T1, FL HMGB1 (human, UniProt P09429 1-215, C23S;C45S;C106S;E204C); assay: EMSA
Target sequence in this assay (P09429 whole entry C23S/C45S/C106S/E204C): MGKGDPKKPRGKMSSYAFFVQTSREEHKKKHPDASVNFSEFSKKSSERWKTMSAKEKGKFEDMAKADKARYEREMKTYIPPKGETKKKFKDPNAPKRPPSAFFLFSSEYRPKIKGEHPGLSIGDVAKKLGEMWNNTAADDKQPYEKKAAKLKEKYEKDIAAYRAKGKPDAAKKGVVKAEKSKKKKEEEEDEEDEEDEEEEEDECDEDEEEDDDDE

[2] = biological target: T2, AB (HMGB1 without C-terminal tail) (human, UniProt P09429 1-166, C23S;C45S;C106S;S35C); assay: EMSA
FL HMGB1 [3] = biological target: T1, FL HMGB1; assay: smFRET
B box = B box (human, UniProt P09429 83-166, C106S;A137C); assay: smFRET
A box = biological target: T3, A box (human, UniProt P09429 1-85, C23S;C45S;S35C); assay: smFRET
T3 sequence: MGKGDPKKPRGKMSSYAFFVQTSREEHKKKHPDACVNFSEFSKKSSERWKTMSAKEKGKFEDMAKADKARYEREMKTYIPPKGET

AB-F38A = AB-F38A (human, UniProt P09429 1-166, C23S;F38A;C45S;C106S;S35C); assay: smFRET
[4] = biological target: T2, AB (HMGB1 without C-terminal tail); assay: smFRET

B box, sequence (P09429 83-166 C106S/A137C): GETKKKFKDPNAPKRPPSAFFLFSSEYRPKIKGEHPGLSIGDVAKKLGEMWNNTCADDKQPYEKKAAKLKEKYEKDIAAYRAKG

Binder	Kd (FL HMGB1 [1])	Kd [2]	binding result (FL HMGB1 [3])	binding result (B box)	binding result (A box)	binding result (AB-F38A)	binding result [4]
B1	10 nM	5 nM					
B2			binds	binds	binds	binds	binds
